Here are results for two molecules from patent US8383350.

Experiment [1] has as its target humanized 12G8 anti-IL-10 antibody. Kind of experiment: sandwich ELISA: capture 13G4 0.5 ug/mL, humanized 12G8 100 ng/mL, detection biotinylated 11F12 2.0 ug/mL.
The target is the same in experiment [2]. Kind of experiment: sandwich ELISA: capture 13G4 0.5 ug/mL, humanized 12G8 100 ng/mL, detection biotinylated 11F12 1.0 ug/mL.
For experiment [3] the target is unchanged. Description: sandwich ELISA: capture 13G4 1.0 ug/mL, humanized 12G8 100 ng/mL, detection biotinylated 11F12 2.0 ug/mL. (An ELISA detects its analyte on a solid surface through an enzyme-linked reagent.)
For experiment [4] the target is unchanged. Description: sandwich ELISA: capture 13G4 1.0 ug/mL, humanized 12G8 100 ng/mL, detection biotinylated 11F12 0.5 ug/mL.
The target is the same in experiment [5]. Description: blocking ELISA: purified antibody titrated against biotinylated humanized 12G8, binding to coated human IL-10 read.
Experiment [6] has the same target. Kind of experiment: sandwich ELISA: capture 13G4 1.0 ug/mL, humanized 12G8 100 ng/mL, detection biotinylated 11F12 1.0 ug/mL.
For experiment [7] the target is unchanged. Kind of experiment: sandwich ELISA: capture 13G4 2.0 ug/mL, humanized 12G8 100 ng/mL, detection biotinylated 11F12 2.0 ug/mL.
Experiment [8] has the same target. Description: sandwich ELISA: capture 13G4 2.0 ug/mL, humanized 12G8 100 ng/mL, detection biotinylated 11F12 0.5 ug/mL.
For experiment [9] the target is unchanged. Kind of experiment: sandwich ELISA: capture 13G4 2.0 ug/mL, humanized 12G8 100 ng/mL, detection biotinylated 11F12 1.0 ug/mL.
For experiment [10] the target is unchanged. Kind of experiment: sandwich ELISA: capture 13G4 0.5 ug/mL, humanized 12G8 100 ng/mL, detection biotinylated 11F12 0.5 ug/mL.

B1: JL11.11F12.C4 (antibody, V domains shown)
VH: EVQVQQSGPELVKPGASMKISCKASGYSFTGYTMNWVKQSHGKTLEWIGLINPYNGGTTYNQKFKGKATLTVDKSSSTAYMELLSLTSEDSAVYYCARRGSGYAMDYWGQGTSVTVS
VL: QIVLTQSPAIMSASLGERVAMTCTASSSVSSHYLHWYQQKPGSSPKLWIYSTSNLASGVPARFSGSGSGTSYSLTISSMEAEDAATYYCHQYHRSPWTFGGGTKLEIKR
Broadly, the IC50 is the midpoint of a concentration-inhibition curve. A high value points to weaker potency. Consider B1, for which the Signal:Noise Ratio in experiment [1] worked out at 8; in experiment [2], 8; in experiment [3] it was 25; in [4], 32; in experiment [6], 40; in [7], 20. Besides, the figures for the Signal:Noise Ratio in [8], in experiment [9] and in experiment [10] were 22, 7.5 and 10, respectively. In [5], the IC50 is 2 nM.

B2: JL11.13G4.B11 (antibody, V domains shown)
VH: EVKLVESGGGLVKPGGSLKLSCAASGFAFSSYDMSWVRQTPEKRLEWVASISSDGSYTYYPDTVKGRFTISRDNARNTLNLQMSSLRSEDTALYFCARQDGYYLDYWGQGTTLTVSS
VL: EIVLTQSPALMAASPGEKVTITCSVSSSISSSKLYWYQQKSETSPKPWIYGTSNLASGVPVRFSGSGSGTSYSLTISSMEAEDAATYYCQQWSSYPLTFGAGTKLELKR
On to B2, for which, in experiment [5], the IC50 turned out to be 1 nM.
